Experimental data taken from patent publication US20120064001A1.
pKd: −log10 of the molar value.

What was measured:
[1] = target: recombinant Mouse VEGF164 (mouse) (UniProt Q00731); experiment: SPR (Biacore T100); monomeric scFv over 1000 RU mouse VEGF164 on a CM5 chip; 1:1 fit
[2] = target: mouse VEGF (isoform not given) (mouse) (UniProt Q00731); experiment: indirect ELISA on coated growth factor; 2C3 at 1.0 ug/ml
VEGF-C = experiment: as above
human VEGF-A (human) [3] = target: human VEGF-A (human) (UniProt P15692); experiment: as above
Chain of human VEGF-A (human) (P15692 other isoform, or with tags, fused parts or gaps limits assumed): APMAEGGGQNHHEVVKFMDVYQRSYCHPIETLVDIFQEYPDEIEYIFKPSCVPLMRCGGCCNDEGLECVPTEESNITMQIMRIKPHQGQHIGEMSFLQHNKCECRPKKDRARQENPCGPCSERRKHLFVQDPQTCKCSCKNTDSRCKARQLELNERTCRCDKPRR

PlGF = experiment: as above
VEGF-B = experiment: as above
VEGF-D = experiment: as above
human VEGF-A (human) [4] = target: human VEGF-A (human) (UniProt P15692); experiment: SPR (Biacore T100); IgG over 100 RU human VEGF-A on a CM5 chip; 1:1 fit; 37°C
human VEGF-A (human) [5] = target: human VEGF-A (human) (UniProt P15692); experiment: SPR (Biacore T100); IgG over 100 RU human VEGF-A on a CM5 chip; 1:1 fit; 25°C

Chain of mouse VEGF (isoform not given) (mouse) (Q00731 other isoform, or with tags, fused parts or gaps limits assumed): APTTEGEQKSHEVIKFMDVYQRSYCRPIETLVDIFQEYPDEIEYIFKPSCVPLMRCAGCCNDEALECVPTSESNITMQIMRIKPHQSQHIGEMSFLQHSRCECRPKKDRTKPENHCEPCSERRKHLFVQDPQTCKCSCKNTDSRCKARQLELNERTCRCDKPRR

pKd [1] | mean absorbance (absorbance at 450 nM) [2] | mean absorbance (absorbance at 450 nM) (VEGF-C) | mean absorbance (absorbance at 450 nM) (human VEGF-A (human) [3]) | mean absorbance (absorbance at 450 nM) (PlGF) | mean absorbance (absorbance at 450 nM) (VEGF-B) | mean absorbance (absorbance at 450 nM) (VEGF-D) | pKd (human VEGF-A (human) [4]) | pKd (human VEGF-A (human) [5]) | Substance
8.00 | – | – | – | – | – | – | – | – | EJ173/112-C11 (r84/PGN311) scFv
– | 0.09 | 0.09 | 3.07 | 0.1 | 0.09 | 0.12 | 6.50 | 7.91 | murine 2C3 anti-VEGF antibody (IgG)
